Laboratory results published in patent publication US11512128B2, “VEGF/DLL4 binding agents and uses thereof” (MEREO BIOPHARMA 5, INC., priority 2011, dated 2022).

B1: 219R45-MB-21R79: anti-VEGF/anti-DLL4 monovalent/bispecific antibody, heavy chains SEQ ID NO:7 and 6, light chains SEQ ID NO:8 (antibody)
heavy 1: QVQLVQSGAEVKKPGASVKVSCKASGYTFTNYWMHWVRQAPGQGLEWMGDINPSNGRTSYKEKFKRRVTLSVDKSSSTAYMELSSLRSEDTAVYFCTIHYDDKYYPLMDYWGQGTLVTVSSASTKGPSVFPLAPCSRSTSESTAALGCLVKDYFPEPVTVSWNSGALTSGVHTFPAVLQSSGLYSLSSVVTVPSSNFGTQTYTCNVDHKPSNTKVDKTVERKCCVECPPCPAPPVAGPSVFLFPPKPKDTLMISRTPEVTCVVVDVSHEDPEVQFNWYVDGVEVHNAKTKPREEQFNSTFRVVSVLTVVHQDWLNGKEYKCKVSNKGLPAPIEKTISKTKGQPREPQVYTLPPSREKMTKNQVSLTCLVKGFYPSDIAVEWESNGQPENNYKTTPPMLKSDGSFFLYSKLTVDKSRWQQGNVFSCSVMHEALHNHYTQKSLSLSPGK
heavy 2: QVQLVQSGAEVKKPGASVKISCKASGYSFTAYYIHWVKQAPGQGLEWIGYIANYNRATNYNQKFKGRVTFTTDTSTSTAYMELRSLRSDDTAVYYCARDYDYDVGMDYWGQGTLVTVSSASTKGPSVFPLAPCSRSTSESTAALGCLVKDYFPEPVTVSWNSGALTSGVHTFPAVLQSSGLYSLSSVVTVPSSNFGTQTYTCNVDHKPSNTKVDKTVERKCCVECPPCPAPPVAGPSVFLFPPKPKDTLMISRTPEVTCVVVDVSHEDPEVQFNWYVDGVEVHNAKTKPREEQFNSTFRVVSVLTVVHQDWLNGKEYKCKVSNKGLPAPIEKTISKTKGQPREPQVYTLPPSREEMTKNQVSLTCLVEGFYPSDIAVEWESNGQPENNYKTTPPMLDSDGSFFLYSELTVDKSRWQQGNVFSCSVMHEALHNHYTQKSLSLSPGK
light: DIVMTQSPDSLAVSLGERATISCRASESVDNYGISFMKWFQQKPGQPPKLLIYAASNQGSGVPDRFSGSGSGTDFTLTISSLQAEDVAVYYCQQSKEVPWTFGGGTKVEIKRTVAAPSVIFPPSDEQLKSGTASVVCLLNNFYPREAKVQWKVDNALQSGNSQESVTEQDSKDSTYSLSSTLTLSKADYEKHKVYACEVTHQGLSSPVTKSFNRGEC
modifications: 21R79 Heavy chain without predicted signal sequence; Light chain without predicted signal sequence
B2: 219R45-MB-21M18: anti-VEGF/anti-DLL4 monovalent/bispecific antibody, heavy chains SEQ ID NO:7 and 5, light chains SEQ ID NO:8 (antibody)
heavy 1: QVQLVQSGAEVKKPGASVKVSCKASGYTFTNYWMHWVRQAPGQGLEWMGDINPSNGRTSYKEKFKRRVTLSVDKSSSTAYMELSSLRSEDTAVYFCTIHYDDKYYPLMDYWGQGTLVTVSSASTKGPSVFPLAPCSRSTSESTAALGCLVKDYFPEPVTVSWNSGALTSGVHTFPAVLQSSGLYSLSSVVTVPSSNFGTQTYTCNVDHKPSNTKVDKTVERKCCVECPPCPAPPVAGPSVFLFPPKPKDTLMISRTPEVTCVVVDVSHEDPEVQFNWYVDGVEVHNAKTKPREEQFNSTFRVVSVLTVVHQDWLNGKEYKCKVSNKGLPAPIEKTISKTKGQPREPQVYTLPPSREKMTKNQVSLTCLVKGFYPSDIAVEWESNGQPENNYKTTPPMLKSDGSFFLYSKLTVDKSRWQQGNVFSCSVMHEALHNHYTQKSLSLSPGK
heavy 2: QVQLVQSGAEVKKPGASVKISCKASGYSFTAYYIHWVKQAPGQGLEWIGYISSYNGATNYNQKFKGRVTFTTDTSTSTAYMELRSLRSDDTAVYYCARDYDYDVGMDYWGQGTLVTVSSASTKGPSVFPLAPCSRSTSESTAALGCLVKDYFPEPVTVSWNSGALTSGVHTFPAVLQSSGLYSLSSVVTVPSSNFGTQTYTCNVDHKPSNTKVDKTVERKCCVECPPCPAPPVAGPSVFLFPPKPKDTLMISRTPEVTCVVVDVSHEDPEVQFNWYVDGVEVHNAKTKPREEQFNSTFRVVSVLTVVHQDWLNGKEYKCKVSNKGLPAPIEKTISKTKGQPREPQVYTLPPSREEMTKNQVSLTCLVEGFYPSDIAVEWESNGQPENNYKTTPPMLDSDGSFFLYSELTVDKSRWQQGNVFSCSVMHEALHNHYTQKSLSLSPGK
light: DIVMTQSPDSLAVSLGERATISCRASESVDNYGISFMKWFQQKPGQPPKLLIYAASNQGSGVPDRFSGSGSGTDFTLTISSLQAEDVAVYYCQQSKEVPWTFGGGTKVEIKRTVAAPSVIFPPSDEQLKSGTASVVCLLNNFYPREAKVQWKVDNALQSGNSQESVTEQDSKDSTYSLSSTLTLSKADYEKHKVYACEVTHQGLSSPVTKSFNRGEC
modifications: 21R79 Heavy chain without predicted signal sequence; 21M18 Heavy chain without predicted signal sequence; Light chain without predicted signal sequence
B3: 21M18: anti-DLL4 antibody, parental antibody (Hoey et al., 2009; U.S. Pat. No. 7,750,124) (antibody, V domains shown)
VH: QVQLVQSGAEVKKPGASVKISCKASGYSFTAYYIHWVKQAPGQGLEWIGYISSYNGATNYNQKFKGRVTFTTDTSTSTAYMELRSLRSDDTAVYYCARDYDYDVGMDYWGQGTLVTVSS
VL: DIVMTQSPDSLAVSLGERATISCRASESVDNYGISFMKWFQQKPGQPPKLLIYAASNQGSGVPDRFSGSGSGTDFTLTISSLQAEDVAVYYCQQSKEVPWTFGGGTKVEIK

Columns and labels:
[1] = system: VEGF-induced proliferation of HUVEC cells; test: HUVEC proliferation assay; assay type: cell-based, human; settings: hVEGF 5 ng/ml, Alamar Blue on day 7
Method: FIG. 3. Inhibition of VEGF-induced HUVEC proliferation by anti-VEGF/anti-DLL4 bispecific antibodies. Fluorescence intensity is read using an excitation wavelength of 530 nm and an emission wavelength of 590. 219R45-MB-21M18 (-●-); 219R45-MB-21R79 (-▴-); 219R45 (-▪-); Medium with no VEGF (-⋄-).
HUVEC cells were obtained from Lonza (Walkersville, Md.) and cultured in growth media (M199, 10% heat-inactivated FBS (HI-FBS), 50 μg/ml EGS, 1X heparin, 1 mM L-glutamine). For the HUVEC proliferation assay, a 96-well plate was pre-coated with 50 μl of 10 μg/ml rat tail collagen type I solution (collagen I in 0.02N acetic acid) and incubated at 4° C. overnight. After incubation, the plate was thoroughly aspirated to remove unbound collagen I solution and washed once with 200 μl DPBS. The HUVEC cells were removed from the surface of the growth flasks using an endothelial cell subclone reagent and centrifuged at 1200 rpm for 5 minutes at 4° C. The cells were resuspended in starvation/assay medium (M199 and 2% HI-FBS, 1× heparin, 5 U/ml heparin-glutamine) at a density of 10^5 cells/ml. The cells were seeded into the collagen-coated assay plate at 5000 cells/well, 50 ul/well. The cells were incubated for 3 hours at 37° C., washed one time, refed with 100 ul assay media, and incubated overnight at 37° C. The next day, bispecific antibodies 219R45-MB-21M18, 219R45-MB-21R79, parental antibody 219R45, or control antibody LZ1 were prepared in a mixture with human VEGF (R&D Biosystems, Minneapolis, Minn.). The antibodies were serially diluted 5-fold from […] to 0.25 nM in assay buffer in combination with hVEGF (final concentration 5 ng/ml). The mixture was pre-incubated at 37° C. for 2 hours. The medium was removed from the assay plate, and 100 μl of the antibody/hVEGF mixture was added to each well. […] The plate was read with a SpectraMax M5e Microplate reader (Molecular Devices, Sunnyvale CA) using a excitation wavelength of […] and an emission wavelength of 590 nm.

OMP-C8 colon tumor cells = test: Tumor growth in human skin graft model; assay type: in vivo, NOD-SCID mice; settings: 25 mg/kg intraperitoneally once a week
Method: FIG. 5. Inhibition of colon tumor growth in vivo by an anti-VEGF/anti-DLL4 bispecific antibody. OMP-C8 colon tumor cells were injected subcutaneously into a human skin graft in NOD/SCID mice. Mice were treated with control antibody (-▪-), anti-hDLL4 antibody 21M18 (-▴-), anti-VEGF antibody bevacizumab (-∘-), or anti-VEGF/anti-DLL4 bispecific antibody 219R45-MB-21M18 (-▾-). Data is shown as tumor volume (photons/sec) over days post-treatment. Antibodies were administered intraperitoneally at a dose of 25 mg/kg once a week.
A human skin graft model has been reported which comprises a human skin graft and human tumor cells. A human skin graft is established and then human tumor cells are implanted into the skin graft, allowing the tumor cells to grow in an environment with human stroma and vasculature (Tahtis et al., 2003, Mol. Cancer Ther. 2:[…]). Human skin samples were obtained from neonatal foreskin tissue and grafted onto the lateral flank of NOD-SCID mice. After establishment of the skin graft, luciferase-labeled OMP-C8 colon tumor cells (20,000 cells) were injected intradermally into the human skin. Tumor growth was monitored by bioluminescence imaging using an IVIS imaging system (Caliper Life Sciences, Mountain View, Calif.). Tumors were allowed to grow until they reached 1.2×10^6 photons per second. Tumor-bearing mice (n=6 mice/group) were randomized and treated with control Ab, anti-hDLL4 antibody 21M18, anti-VEGF antibody bevacizumab, or anti-VEGF/anti-DLL4 bispecific antibody 219R45-MB-21M18. Animals were treated once a week and antibodies were administered intraperitoneally at a dose of 25 mg/kg. Tumor growth was monitored by bioluminescence imaging on the indicated days.

OMP-C8 colon tumor = OMP-C8 colon tumor recurrence model; assay type: in vivo, NOD/SCID mice; settings: 21M18, bevacizumab 7.5 mg/kg, bispecifics 15 mg/kg weekly ip; irinotecan 45 mg/kg for first four weeks
Method: FIG. 9. Inhibition of colon tumor growth by anti-VEGF/anti-DLL4 bispecific antibodies in tumor recurrence model. OMP-C8 colon tumor cells were injected subcutaneously in NOD/SCID mice. Mice were treated with control antibody (-▪-), anti-hDLL4 antibody 21M18 (-●-), anti-VEGF antibody bevacizumab (-▴-), a combination of 21M18 and bevacizumab (-▾-), anti-VEGF/anti-DLL4 bispecific antibody 219R45-MB-21M18 (-⋄-), or anti-VEGF/anti-DLL4 bispecific antibody 219R45-MB-21R79 (-∘-), all in combination with irinotecan. Antibodies 21M18 and bevacizumab were administered intraperitoneally at a dose of 7.5 mg/kg once a week, bispecific antibodies 219R45-MB-21M18 and 219R45-MB-21R79 were administered intraperitoneally at a dose of 15 mg/kg once a week, and irinotecan was administered for the first 4 weeks at a dose of 45 mg/kg. Data are shown as tumor volume (mm^3) over days post-treatment.
Single cell suspensions of OMP-C8 colon tumor xenografts (20,000 cells) were injected subcutaneously into the flanks of 6-8 week old NOD/SCID mice. […] Tumor growth was monitored and tumor volumes were measured with electronic calipers at the indicated time points. Data are expressed as mean±S.E.M.

Row | Molecule | inhibition of VEGF-induced HUVEC proliferation [1] | inhibition of tumor growth (bioluminescence) (OMP-C8 colon tumor cells) | inhibition of tumor regrowth after irinotecan was stopped (OMP-C8 colon tumor)
1 | B1 | inhibited HUVEC proliferation | – | –
2 | B2 | inhibited HUVEC proliferation | more effective than either the anti-DLL4 antibody or the anti-VEGF antibody alone | more effective at inhibiting tumor regrowth than the mixture of the two antibodies
3 | B3 | – | inhibited tumor growth | continued to inhibit tumor growth after treatment with irinotecan was stopped
